From the supplement of paper PMC10567573

B1: TRIM9 (parent)
chain: PRNSCITCPQCHRSLILDDRGLRG

Variants of: B1
Assay: protein stability index of a GFP-peptide fusion (GPS, HEK-293T) (PSI 1-6); higher = more stable
Details: c terminus: a fixed tail appended
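Note: lentivirally expressed fusions sorted by FACS into six bins by GFP to DsRed ratio, PSI derived from sequencing read proportions per bin multiplied by bin number.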

Point of comparison: PWNSCITCPQCHRSLILDDRGLRG, protein stability index 2.14. Against it:
- PRNSCITNPQCHRSLILDDRGLRG — higher, 2.6
- PRNSCITAPQCHRSLILDDRGLRG — higher, 2.84
- PRNSCITLPQCHRSLILDDRGLRG — higher, 2.35
- PRNSCITDPQCHRSLILDDRGLRG — higher, 2.24
- PRNSCITWPQCHRSLILDDRGLRG — higher, 2.89
- PRNSCITTPQCHRSLILDDRGLRG — higher, 3.33
- PRNSCITPPQCHRSLILDDRGLRG — higher, 3.14
- PRNSCITIPQCHRSLILDDRGLRG — higher, 2.38
- PRNSCITKPQCHRSLILDDRGLRG — higher, 2.4
- PRNSCITMPQCHRSLILDDRGLRG — higher, 2.62
- PRNSCITQPQCHRSLILDDRGLRG — higher, 2.16
- PRNSCITSPQCHRSLILDDRGLRG — higher, 3.15
- PRNSCITHPQCHRSLILDDRGLRG — higher, 2.29
- PRNSCITGPQCHRSLILDDRGLRG — higher, 2.34
- PRNSCITRPQCHRSLILDDRGLRG — higher, 2.47
- PRNSCITEPQCHRSLILDDRGLRG — higher, 3.18
- PRNSCITFPQCHRSLILDDRGLRG — lower, 1.57
- PRNSCITYPQCHRSLILDDRGLRG — higher, 2.54
- PRNSCITVPQCHRSLILDDRGLRG — higher, 2.47
- PRNSCIYCPQCHRSLILDDRGLRG — higher, 2.33
- PRNSCIACPQCHRSLILDDRGLRG — higher, 2.42
- PRNSCIQCPQCHRSLILDDRGLRG — higher, 2.38
- PRNSCINCPQCHRSLILDDRGLRG — lower, 2.04
- PRNSCIMCPQCHRSLILDDRGLRG — higher, 2.36
- PRNSCIGCPQCHRSLILDDRGLRG — higher, 2.4
- PRNSCILCPQCHRSLILDDRGLRG — lower, 1.99
- PRNSCICCPQCHRSLILDDRGLRG — lower, 2.05
- PRNSCIICPQCHRSLILDDRGLRG — higher, 2.16
- PRNSCIWCPQCHRSLILDDRGLRG — lower, 2
- PRNSCISCPQCHRSLILDDRGLRG — higher, 2.48
- PRNSCIPCPQCHRSLILDDRGLRG — lower, 1.72
- PRNSCIHCPQCHRSLILDDRGLRG — higher, 3.11
- PRNSCIDCPQCHRSLILDDRGLRG — lower, 1.81
- PRNSCIRCPQCHRSLILDDRGLRG — lower, 1.98
- PRNSCIFCPQCHRSLILDDRGLRG — lower, 1.84
- PRNSCIVCPQCHRSLILDDRGLRG — higher, 3.1
- PRNSCIKCPQCHRSLILDDRGLRG — higher, 2.25
- PRNSCIECPQCHRSLILDDRGLRG — lower, 1.99
- PRNSHITCPQCHRSLILDDRGLRG — lower, 1.77
- PRNSVITCPQCHRSLILDDRGLRG — higher, 2.8
- PRNSQITCPQCHRSLILDDRGLRG — lower, 1.92
- PRNSLITCPQCHRSLILDDRGLRG — higher, 2.29
- PRNSDITCPQCHRSLILDDRGLRG — lower, 2.11
- PRNSAITCPQCHRSLILDDRGLRG — lower, 1.67
- PRNSPITCPQCHRSLILDDRGLRG — higher, 2.49
- PRNSRITCPQCHRSLILDDRGLRG — higher, 3.09
- PRNSEITCPQCHRSLILDDRGLRG — higher, 2.67
- PRNSYITCPQCHRSLILDDRGLRG — lower, 1.87
- PRNSNITCPQCHRSLILDDRGLRG — lower, 1.99
- PRNSIITCPQCHRSLILDDRGLRG — higher, 2.34
- PRNSKITCPQCHRSLILDDRGLRG — lower, 1.71
- PRNSSITCPQCHRSLILDDRGLRG — higher, 2.42
- PRNSGITCPQCHRSLILDDRGLRG — higher, 2.75
- PRNSFITCPQCHRSLILDDRGLRG — lower, 2.08
- PRNSTITCPQCHRSLILDDRGLRG — lower, 2.02
- PRNSCITCGQCHRSLILDDRGLRG — lower, 1.72
- PRNSCITCDQCHRSLILDDRGLRG — lower, 2.05
- PRNSCITCCQCHRSLILDDRGLRG — higher, 2.45
- PRNSCITCKQCHRSLILDDRGLRG — higher, 2.18
- PRNSCITCNQCHRSLILDDRGLRG — lower, 1.54
- PRNSCITCRQCHRSLILDDRGLRG — higher, 2.58
- PRNSCITCEQCHRSLILDDRGLRG — lower, 1
- PRNSCITCLQCHRSLILDDRGLRG — lower, 2.12
- PRNSCITCAQCHRSLILDDRGLRG — higher, 2.5
- PRNSCITCFQCHRSLILDDRGLRG — lower, 1.54
- PRNSCITCHQCHRSLILDDRGLRG — lower, 1.51
- PRNSCITCSQCHRSLILDDRGLRG — higher, 2.16
- PRNSCITCTQCHRSLILDDRGLRG — lower, 1.83
- PRNSCITCMQCHRSLILDDRGLRG — lower, 1.45
- PRNSCITCVQCHRSLILDDRGLRG — higher, 2.67
- PRNSCITCYQCHRSLILDDRGLRG — higher, 3.11
- PRNSCITCWQCHRSLILDDRGLRG — higher, 3.5
- PRNSCITCPHCHRSLILDDRGLRG — higher, 2.62
- PRNSCITCPDCHRSLILDDRGLRG — higher, 2.49
- PRNSCITCPRCHRSLILDDRGLRG — higher, 2.36
- PRNSCITCPICHRSLILDDRGLRG — lower, 2.05
- PRNSCITCPFCHRSLILDDRGLRG — higher, 3
- PRNSCITCPSCHRSLILDDRGLRG — higher, 2.46
- PRNSCITCPKCHRSLILDDRGLRG — higher, 2.25
- PRNSCITCPACHRSLILDDRGLRG — higher, 2.37
- PRNSCITCPYCHRSLILDDRGLRG — higher, 3.29
- PRNSCITCPCCHRSLILDDRGLRG — lower, 1.95
- PRNSCITCPPCHRSLILDDRGLRG — lower, 2.02
- PRNSCITCPGCHRSLILDDRGLRG — higher, 4.38
- PRNSCITCPECHRSLILDDRGLRG — lower, 1.53
- PRNSCITCPNCHRSLILDDRGLRG — higher, 2.47
- PRNSCITCPTCHRSLILDDRGLRG — higher, 2.52
- PRNSCITCPLCHRSLILDDRGLRG — lower, 1.89
- PRNSCITCPVCHRSLILDDRGLRG — higher, 2.29
- PRNSCITCPMCHRSLILDDRGLRG — lower, 2.04
- PGNSCITCPQCHRSLILDDRGLRG — higher, 2.82
- PINSCITCPQCHRSLILDDRGLRG — higher, 2.64
- PLNSCITCPQCHRSLILDDRGLRG — higher, 2.24
